Measured values: the nanobody polyreactivity screen of Harvey et al. (2022)

Assay: yeast display, Sf9 membrane polyspecificity reagent, FACS + sequencing; frameworks hold sequencing errors
Procedure, shortened: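 Genes from sorted yeast were amplified by colony PCR, read by MiSeq 2 × 250 sequencing and filtered on CDR length. These cells carried a synthetic nanobody library in Saccharomyces cerevisiae BJ5465 and were sorted by FACS into low and high (top ~1%) gates on anti-HA and streptavidin fluorescence. Polyreactivity is labelled according to the gate of origin.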

Sequence | polyreactivity (PSR sort gate)
QVQLVESGGGLVQAGGSLRLSCAASGRTLIVNTMGWYRQAPGKEREFVAAIFSGASTYYADSVKGRFTISRDNAMNTDYLQINSVKPEDTAVYYCAAAVFRWSRYDYWGQGTQVTVSS | low polyreactivity
QVQLVESGGGLVQAGGSLRLSCAASGRIFRRNTMGWYRQAPGKERELVATISKNGGSTYYADSVKGRFTISRDNAKNTVYLQMNSLKPADTAVYYCNAPDPSSTSYFPYELGYWGQGTQVTVSS | high polyreactivity
QVQLEESGGGLVQAGGSLRLSCAASGRTFRYNAMGWYRQAPGKERELVVAINWSGGSTYYADSVKGRFTISRDNAKNTVYLQMNSLKPEDTAVYYCAAEPTGWVWYAGYGYYWGQGTRVTVSS | high polyreactivity
QVQLVESWGGLVQAGGSLRLSCAASGFIFQTNVMGWYRQAPGKERELVAAISSGDSTYYADSVKGRFTISRDNAKNTVYLQMNSLKPEDTAVYYCAADVLGTTTTVGGFNYWGQGTQVTVSS | low polyreactivity
QVQLVESGGGLVQAGGSLRLSCAASGSTFAGYVMGWYRQAPGKERELVASKSWSGGSTYYADSVKGRFTISRDNAKNTVNLQMNSLKPEETAVYYSNTRRYERTDSAYPDHDYPGYYWGQATQVTVSS | low polyreactivity
QVQLVESGGGLVQAGGSLRLSCAASGFIFRPYAMGWYRQAPGKERELVATIRWGASSTHYADSVKGRFTISRDNAKNTVYLQMNSLKPEDTAVYDCNADGWYGAVYWWFYGFDYWGQGTQVTVSS | low polyreactivity
QVQLVESGGGLVQAGGSLRLSCAASGSIFHTYVMGWYRQAPGKERELVASITRSGGSTYYADSVKGRFTISRDNAMNTVYLQMNSLKPEDTAVYYCAATYRTANHRYYYWGQGTQVTVSS | high polyreactivity
QVQLVESGGGLVQAGGSLRLSCAATGRTSTYYPMGWYRQAPGKERELVAAIRSGTITNYADSVKGRFTISRDNAKNTVYLQMNSLKPEDSAVYYCAAKYRYSTYHRGSFNYWGQGTQVTVSS | high polyreactivity
QVQLVESGGGLVQAGGSLRLSCAASGSTFVIYTMGWCRQAPGKERELVAAISWSGGITRYADSVKGRFTISRDNAKNTVYLQMNSLKPEDTAVYYCNASQWPSLFDYWGQGTQVTVSS | low polyreactivity
QVQLVESGGGLVQAGGSLRLSCAASGSIFGSYTMGWYRQAPGKERELVAAINASGGRTYYADSVKGRFTISRDNAKNTVYLQMNSLKPEDTAVYYCNKATYYQTYDYWGQGTQVTVSS | high polyreactivity
QVQLVESGGGLVQAGGSLRLSCAASGFTFYLNAMGLYRQAPGKERELVAGISWRGGRTYYADSVKGRFTISRDNAKNSVYLQMNSLKAEDTAVYYCAAVTYSFQKTDYYWGQGTQVTVSS | high polyreactivity
QVQLVESGGVLDQAGGSLRLSCAAAGITSPDNVMGWYRKAPGKEFDLVAANSGSGGSTYYADYVQGRFTISRDNAKNSVYLQINILKPEDTAVYYCAADVEYKVFPGDYWGQGTQVTVSS | low polyreactivity
QVQLVESGGGLVQAGGSLRLSCAASGRTFASYTMGWYRQAPGKERELVAAISRGGNTYYADSVKGRFTISRDNAKNTVYLQMNSLKPEDTAVYYCAATAVKYDRRFYYWGQGTQVTVSS | high polyreactivity
QVQLVESGGGLVQAGGSLRLSCADSGYTFSPNAMGWYRQAPGKELELVAAISSAVSTDYADSVKGRFTISRDNAKNTVYLQMNSLKPEDTAVYYCAADDQYRVTLGYDYWGQGTQVTVSS | low polyreactivity
QVQLVESGGGLVQAGGSLRLSCAASGFIFETYAMGWYRQAPGKERELVAAISRGASTYYADSVKGRFTISRDNAKNTVSLQMNSLKQEDTGVYYCAAKRLSWHRYGYWGQGTQVTVSS | low polyreactivity
QVQLVESGGGLVQAGGSLRLSCAASGYTFQAYAMGWYRQAPGKERELVAAISFSSGSTYYADSVKGRFTISRDNAKNTVYLQMNSLKPVDTAVYYCATDYPYYGYDYWGHGTQVTVSS | low polyreactivity

Sequence | polyreactivity (PSR sort gate)
QVQLVETGGGLVQAGGSLRITCAASGSIFSYYDMGLNRQAPGNEREMVAAFSWDGGDRTYADSVKGRFTISRDIAKNTVYLQMNSLKPEDSAVYYCAKNTGSYRRVNLDYWGQGTQVTVSS | low polyreactivity
QVQLVESGGGLVQAGGSLRLSCAASGRTSYYAMGWYRQAPGKERELVAAINSGDSTTYADSVKGRFTISRDNAKNTVYLQMNSLKPEDTAVYYCATALYDWYSLEFDYWGQGTQVTVSS | low polyreactivity
QVQLVESGGGLVQAGGSLRLSCAASGNIIIPYAMGWYRQAPGNEREFVAVMSTRGGSTYYADSVKGRFTISRDNAQNTVYLQMNSLKPEDTAVYYCAARYPYRYDYWGQGTQVTVSS | high polyreactivity
QVQLVESGGGLVQAGGSLRLSCAASGRIFTWYAMGWYRQAPGKERELVAAINASGGGTYADSVKGRFTISRDNAKNTVYLQMNSLKPEDTAVYYCNADIRAFYLYYSEGFSWRLDYWGQGTQVTVSS | high polyreactivity
QVHIVESGGGLVQAGGSLRLSCAASGINFGRNVMGWYRQPPGKERELVAAISWSGGRTYYADSVKGRFTISRDNAKNTVYFQIKSLITEDTAVYDCNARTGYYTGQYDYWGQGSQVTVSS | high polyreactivity
QFQLVESGGGLVQAGGSLRLSCAASGFTSYRNALGWYRQAPGKERELVAAISRGDSTYYADSVKGRFTISRDNAKNTVYLQMNSLKAEDTAVYYCATPPTVYGWLAGYDYWGQGTQVTVSS | low polyreactivity
QVQLVESGGGLVQAGGSLRLSCAASGRTFTFNVMGWYRQAPGKERELVAVITGGDDTYYADSVKGRFTISRDNAKNTVYFQMNSLKPVDTAVYYCNAAAGATTLVRPYVEFDYWGQGTQVNVSS | low polyreactivity
QVQLVESGGGLVQAGGSLRLSCAASGSIFVYNAMGWYRQAPGNERELVAGINYSGGSTYYADSVKGRFTISRDNATNTVYLQMNSLKPEDTAVYSCARRRPYQWPYNYWGQGTQVTVSS | high polyreactivity
QVQLQESGGGLVQAGGSLRLSCAASGNISVTGFMGWYRQAPGKERELVASIGIGATTYYADSVKGRFSISRDNAKNTVYLQMNSLKPEDTAVYYCAARYLYYAYSYWGQGTQVTVSS | low polyreactivity
QVQLVESGGGLVQAGGSLRLSCAASGITLSANAMGWYRQAPGKERELVATITWSGGSTYYADSVKGRFTISRDNAKNTVYLQMNSLKPEDTAVYYCNARSYDEYPYYSYNYWGQGTQVTVSS | low polyreactivity
QVQLVESGGGLVQAGGSLRLSCAASGRIFPNAMGWYRQAPGKERELVAAISWSGVTTTYADSVKGRFTISRDNAKNTVYLQMNSLKPEDTAVYYCAARYWAYGYWGQGTQVTVSS | high polyreactivity
QVQLVESGGGLVQAGGSLRLSCAASGRIFANYARGWYRQAPGKERELVAAITASGGSTYYADSVKGRFTISRVNAKNTVYLQMNSLKPEDTAGYYCAKGYRLYTMYSWGQGTQVTVSS | high polyreactivity
QVQLVESGGGLVQAGGSLRLSCAASGRIFYRYAMGWYRQAPGKEREFVAAISRSGTTTYYADSVKGRFTISRDNAKNTVYLQMNSLKPEDTAVYYCAVGYRGWDGYWGQGTQVTVSS | high polyreactivity
QVQLVESGGGLVQAGGSLRLSCAASGIIFYYNGMGWYRQAPGKERELVAAISGDGSTNYADSVKGRFTISRDNAKNTVYLQMNSLKPEDTAVYYCNADDIFRPRDDLYDYWGQGTQVTVSS | low polyreactivity
QVQLVESGGGLVQAGGSLRLSCAASGYTFVIYAMGWYRQAPGKERELVAAITTIGGRTYYADSVKGRFTISRDNAKNTVYLLMNSLKPEDTAVYYCAADIRSNRLYDGGYWGQGTQVTVSS | low polyreactivity
QVQLVESGGGLVQAGGSLRLSCAASGYIFQDYAMGWYRPAPGKERELVAAITSGGSTYYADSVKGRFTISRDNAKNTVYLQMNSLKPEDTAVYYCAAVGYYSVPGYSSRRYYYWGQGTQVTVSS | high polyreactivity
